Experimental data as given in patent US20050196758.

Target: T1, trans-2-butenoyl-ACP (acyl carrier protein carrying the trans-2-butenoyl group), P0A6A8
T1 chain: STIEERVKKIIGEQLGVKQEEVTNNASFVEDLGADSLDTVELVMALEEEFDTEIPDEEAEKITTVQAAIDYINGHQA

B1: His-tagged FabK (enoyl-ACP reductase II) of Streptococcus pneumoniae (protein)
chain: MKTRITELLKIDYPIFQGGMAWVADGDLAGAVSKAGGLGIIGGGNAPKEVVKANIDKIKSLTDKPFGVNIMLLSPFVEDIVDLVIEEGVKVVTTGAGNPSKYMERFHEAGIIVIPVVPSVALAKRMEKIGADAVIAEGMEAGGHIGKLTTMTLVRQVATAISIPVIAAGGIADGEGAAAGFMLGAEAVQVGTRFVVAKESNAHPNYKEKILKARDIDTTISAQHFGHAVRAIKNQLTRDFELAEKDAFKQEDPDLEIFEQMGAGALAKAVVHGDVDGGSVMAGQIAGLVSKEETAEEILKDLYYGAAKKIQEEASRWTGVVRND
- specific activity (enoyl-ACP reductase activity, coupled in vitro assay, butyryl-ACP formation by gel electrophoresis): 66±4 nmole product formed/min/mg FabK
